Measurements published in paper PMC8945615.

Biological target: soluble human fibrin (human) (UniProt P02679)
Experiment: SPR

Sequence of UniProt P02679 (P02679 whole entry, looked up, tested part not stated): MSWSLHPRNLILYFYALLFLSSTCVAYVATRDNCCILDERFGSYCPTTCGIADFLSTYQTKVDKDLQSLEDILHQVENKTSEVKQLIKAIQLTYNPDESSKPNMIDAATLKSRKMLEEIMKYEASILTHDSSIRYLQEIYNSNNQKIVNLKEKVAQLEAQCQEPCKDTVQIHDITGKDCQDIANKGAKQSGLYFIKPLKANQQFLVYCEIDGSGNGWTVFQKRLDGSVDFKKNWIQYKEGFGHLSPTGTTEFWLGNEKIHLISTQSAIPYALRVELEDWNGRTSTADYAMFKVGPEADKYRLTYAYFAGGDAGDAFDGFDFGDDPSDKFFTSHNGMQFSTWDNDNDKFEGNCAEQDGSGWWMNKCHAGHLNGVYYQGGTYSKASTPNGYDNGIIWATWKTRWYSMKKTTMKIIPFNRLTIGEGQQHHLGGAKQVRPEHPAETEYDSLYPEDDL

- KD2 (heterogeneous ligand model): 3.79e-07
- KD2 (heterogeneous ligand model, primed with PT25-2): 1.37e-07
- Kd1 (heterogeneous ligand model): 1.47e-07
- Kd1 (heterogeneous ligand model, primed with PT25-2): 4.78e-08
- fold increase of ka1 on priming with PT25-2 (against unprimed αIIbβ3): 3 fold
- ka1 (heterogeneous ligand model): 13400
- kd1 (heterogeneous ligand model): 0.00196
Substance: full-length, purified αIIbβ3 (from UniProt P08514 32-1039; P05106 27-788) (receptor)
